Data: paper PMC10364586

Molecular target: PADI4 (peptidyl-arginine deiminase 4), recombinant, dimeric (human) (UniProt Q9UM07)
Test: BLI

PADI4 (peptidyl-arginine deiminase 4), recombinant, dimeric (human), sequence (Q9UM07 whole entry): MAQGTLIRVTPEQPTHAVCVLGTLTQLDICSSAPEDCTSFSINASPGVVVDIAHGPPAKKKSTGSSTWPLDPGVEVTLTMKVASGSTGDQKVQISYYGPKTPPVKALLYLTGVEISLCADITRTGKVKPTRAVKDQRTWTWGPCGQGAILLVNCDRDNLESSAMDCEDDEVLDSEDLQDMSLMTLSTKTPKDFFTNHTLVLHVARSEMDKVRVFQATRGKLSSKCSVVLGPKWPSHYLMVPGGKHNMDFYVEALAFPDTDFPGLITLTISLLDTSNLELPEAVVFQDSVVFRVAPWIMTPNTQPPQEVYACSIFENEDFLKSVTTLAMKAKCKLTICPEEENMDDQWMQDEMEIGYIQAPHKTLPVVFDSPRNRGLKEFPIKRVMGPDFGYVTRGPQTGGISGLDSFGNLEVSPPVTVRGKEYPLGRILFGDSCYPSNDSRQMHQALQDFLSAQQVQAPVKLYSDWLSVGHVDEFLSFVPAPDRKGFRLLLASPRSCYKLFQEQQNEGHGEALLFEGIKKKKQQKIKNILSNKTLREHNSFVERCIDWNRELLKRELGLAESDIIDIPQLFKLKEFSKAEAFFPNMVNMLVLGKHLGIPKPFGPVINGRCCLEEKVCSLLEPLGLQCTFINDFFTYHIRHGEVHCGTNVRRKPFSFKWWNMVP

N-MDM2 derived from GST-tagged N-MDM2, GST-tag removed with thrombin (domain or fragment)
Kd: 2000 nM | koff: 0.3 s⁻¹ | kon: 170000 M⁻¹ s⁻¹
